For 53 variants, abundance fitness results are on record in the Human Domainome abundance scans (Beltran et al. 2025).

To fix the notation:
B1: Histone-lysine N-methyltransferase SETD2, residues 2382 to 2430; numbered along this chain, Q9BYW2 (parent)
chain: SPPKPKTIVLPPNWKTARDPEGKIYYYHVITRQTQWDPPTWESPGDDAS

± gives the uncertainty stated by the source.

Variants of B1 are the subject of this data set. Briefly: abundance fitness (aPCA) (normalised: wild type 0, dead -1); higher = more abundant; growth selection in yeast, the domain comes from the species named. The settings on record: Homo sapiens.
Regarding SPPKPKTIVLPPNWKTARDPEGKIYYYHVITRQTQWDIPTWESPGDDAS, the abundance fitness was -0.111 ± 0.04.
Then SPPKPKTIVLPPNWKTARDPEGKIYYYHVITRQTQWDLPTWESPGDDAS, with -0.396 ± 0.052; and SPPKPKTIVLPPNWKTARDPEGKIYYYHVITRQTQWDPPTWVSPGDDAS, with -0.141 ± 0.048.
As to SPPKPKTIVLPPNWKTARDPEGKIYYYHVITRQTQWDPPTWNSPGDDAS, the abundance fitness was -0.173 ± 0.038.
With SPPKPKTIVLPPNWKTARDPEGKIYYYHVITRQTQWDPPTWQSPGDDAS the figure was -0.291 ± 0.066.
Then SPPKPKTIVLPPNWKTARDPEGKIYYYHVITRQTQWDPPTWDSPGDDAS, with -0.504 ± 0.17; and SPPKPKTIVLPPNWKTARDPEGKIYYYHVITRQTQWDPPTWKSPGDDAS, with -0.074 ± 0.035; and SPPKPKTIVLPPNWKTARDPEGKIYYYHVITRQTQWDPPTWTSPGDDAS, with -0.341 ± 0.098.
As to SPPKPKTIVLPPNWKTARDPEGKIYYYHVITRQTQWDPPTWSSPGDDAS, the abundance fitness came out at 0.011 ± 0.062.
With SPPKPKTIVLPPNWKTARDPEGKIYYYHVITRQTQWDPPTWLSPGDDAS the figure was -0.412 ± 0.077; with SPPKPKTIVLPPNWKTARDPEGKIYYYHVITRQTQWDPPTWWSPGDDAS, -0.172 ± 0.066.
SPPKPKTIVLPPNWKTARDPEGKIYYYHVITRQTQWDPPTWCSPGDDAS: the abundance fitness was -0.303 ± 0.053.
Then SPPKPKTIVLPPNWKTARDPEGKIYYYHVITRQTQWDPPTWMSPGDDAS, with -0.457 ± 0.16; and SPPKPKTIVLPPNWKTARDPEGKIYYYHVITRQTQWDPPTWFSPGDDAS, with 0.124 ± 0.1.
Take SPPKPKTIVLPPNWKTARDPEGKIYYYHVITRQTQWDPPTWRSPGDDAS: the abundance fitness is -0.184 ± 0.042.
For the variant SPPKPKTIVLPPNWKTARDPEGKIYYYHVITRQTQWDPPTWGSPGDDAS, the abundance fitness was -0.053 ± 0.047.
Regarding SPPKPKTIVLPPNWKTARDPEGKIYYYHVITRQTQWDPPTWASPGDDAS, the abundance fitness was -0.148 ± 0.065.
Take SPPKPKTIVLPPNWKTARDPEGKIYYYHVITRQTQWDPPTWPSPGDDAS: the abundance fitness was determined as 0.087 ± 0.082.
With SPPKPKTIVLPPNWKTARDPEGKIYYYHVITRQTQWDPPNWESPGDDAS the figure was 0.045 ± 0.1.
Then SPPKPKTIVLPPNWKTARDPEGKIYYYHVITRQTQWDPPAWESPGDDAS, with 0.15 ± 0.039; and SPPKPKTIVLPPNWKTARDPEGKIYYYHVITRQTQWDPPGWESPGDDAS, with 0.064 ± 0.054.
For the variant SPPKPKTIVLPPNWKTARDPEGKIYYYHVITRQTQWDPPRWESPGDDAS, the abundance fitness is -0.019 ± 0.033.
SPPKPKTIVLPPNWKTARDPEGKIYYYHVITRQTQWDPPIWESPGDDAS: the abundance fitness is -0.629 ± 0.17.
With SPPKPKTIVLPPNWKTARDPEGKIYYYHVITRQTQWDPPFWESPGDDAS the figure was -0.251 ± 0.1.
Regarding SPPKPKTIVLPPNWKTARDPEGKIYYYHVITRQTQWDPPLWESPGDDAS, the abundance fitness is -0.071 ± 0.042.
For SPPKPKTIVLPPNWKTARDPEGKIYYYHVITRQTQWDPPHWESPGDDAS, the abundance fitness came to 0.155 ± 0.036.
For the variant SPPKPKTIVLPPNWKTARDPEGKIYYYHVITRQTQWDPPYWESPGDDAS, the abundance fitness was -0.123 ± 0.075.
Then SPPKPKTIVLPPNWKTARDPEGKIYYYHVITRQTQWDPPVWESPGDDAS, with 0.057 ± 0.048.
For the variant SPPKPKTIVLPPNWKTARDPEGKIYYYHVITRQTQWDPPEWESPGDDAS, the abundance fitness amounted to 0.12 ± 0.043.
For SPPKPKTIVLPPNWKTARDPEGKIYYYHVITRQTQWDPPWWESPGDDAS, the abundance fitness is -0.232 ± 0.035.
Take SPPKPKTIVLPPNWKTARDPEGKIYYYHVITRQTQWDPPQWESPGDDAS: the abundance fitness amounted to 0.277 ± 0.08.
With SPPKPKTIVLPPNWKTARDPEGKIYYYHVITRQTQWDPPDWESPGDDAS the figure was -0.342 ± 0.14; with SPPKPKTIVLPPNWKTARDPEGKIYYYHVITRQTQWDPPMWESPGDDAS, 0 ± 0.044.
Then SPPKPKTIVLPPNWKTARDPEGKIYYYHVITRQTQWDPPSWESPGDDAS, with 0.062 ± 0.056; and SPPKPKTIVLPPNWKTARDPEGKIYYYHVITRQTQWDPPCWESPGDDAS, with 0.151 ± 0.061; and SPPKPKTIVLPPNWKTARDPEGKIYYYHVITRQTQWDPPPWESPGDDAS, with 0.017 ± 0.076.
Then SPPKPKTIVLPPNWKTARDPEGKIYYYHVITRQTQWDPPTPESPGDDAS, with -0.058 ± 0.095; and SPPKPKTIVLPPNWKTARDPEGKIYYYHVITRQTQWDPPTLESPGDDAS, with 0.078 ± 0.033.
Regarding SPPKPKTIVLPPNWKTARDPEGKIYYYHVITRQTQWDPPTVESPGDDAS, the abundance fitness came out at 0.077 ± 0.035.
Then SPPKPKTIVLPPNWKTARDPEGKIYYYHVITRQTQWDPPTCESPGDDAS, with 0.04 ± 0.045; and SPPKPKTIVLPPNWKTARDPEGKIYYYHVITRQTQWDPPTYESPGDDAS, with 0.338 ± 0.084; and SPPKPKTIVLPPNWKTARDPEGKIYYYHVITRQTQWDPPTIESPGDDAS, with 0.05 ± 0.069.
Consider SPPKPKTIVLPPNWKTARDPEGKIYYYHVITRQTQWDPPTRESPGDDAS, for which the abundance fitness worked out at 0.091 ± 0.036.
With SPPKPKTIVLPPNWKTARDPEGKIYYYHVITRQTQWDPPTSESPGDDAS the figure was 0.195 ± 0.042; with SPPKPKTIVLPPNWKTARDPEGKIYYYHVITRQTQWDPPTHESPGDDAS, 0.117 ± 0.081; with SPPKPKTIVLPPNWKTARDPEGKIYYYHVITRQTQWDPPTMESPGDDAS, 0.16 ± 0.033.
Regarding SPPKPKTIVLPPNWKTARDPEGKIYYYHVITRQTQWDPPTGESPGDDAS, the abundance fitness stood at 0.034 ± 0.051.
Take SPPKPKTIVLPPNWKTARDPEGKIYYYHVITRQTQWDPPTAESPGDDAS: the abundance fitness was found to be 0.07 ± 0.058.
Then SPPKPKTIVLPPNWKTARDPEGKIYYYHVITRQTQWDPPTKESPGDDAS, with 0.165 ± 0.041; and SPPKPKTIVLPPNWKTARDPEGKIYYYHVITRQTQWDPPTDESPGDDAS, with 0.06 ± 0.1; and SPPKPKTIVLPPNWKTARDPEGKIYYYHVITRQTQWDPPTEESPGDDAS, with 0.166 ± 0.046.
Then SPPKPKTIVLPPNWKTARDPEGKIYYYHVITRQTQWDPPTQESPGDDAS, with 0.249 ± 0.04; and SPPKPKTIVLPPNWKTARDPEGKIYYYHVITRQTQWDPPTFESPGDDAS, with 0.334 ± 0.092.
